Experimental findings from patent publication US20190322748A1 (Hoffmann-La Roche, published 2019) are described below.

In assay [1] the target is T1, full-length human Tim3 on cells (CHO-K1 stably transfected with plasmid 15312_hTIM3-fl_pUC_Neo) (human, UniProt Q8TDQ0 22-301). Nature of the assay: cell-based or functional assay.
Assay [2] deals with T1, full-length human Tim3 on cells (CHO-K1 …). Nature of the assay: cell ELISA on CHO-K1 cells with full-length human Tim3.
Assay [3] deals with T2, biotinylated cynoPD1-ECD-Biotin (cynomolgus).
T2 construct: extracellular domain; also called cyPD1
Briefly: ELISA on coated cynoPD1-ECD-Biotin.

Assay [4] has as its target T2, biotinylated cynoPD1-ECD-Biotin. Briefly: ELISA, cynomolgus cross-reactivity.
Assay [5] has as its target T3, biotinylated PD1-ECD-AviHis (human, UniProt Q15116 25-170, biotinylated, site not stated).
T3 construct: also called huPD1; hu PD1
Nature of the assay: ELISA on coated biotinylated PD1-ECD-AviHis.

The target of assay [6] is T3, biotinylated PD1-ECD-AviHis. Briefly: ELISA on coated biotinylated PD1-ECD-AviHis. This is another data set of the same source.
Assay [7] has as its target T4, full-length human PD1 on cells (CHO-K1 stably transfected with plasmid 15311_hPD1-fl_pUC_Neo) (human, UniProt Q15116 25-288).
T4 construct: Also used as the target of the MLR and reporter read-outs; also called CHO-PD1; PD1 on primary human T cells in the MLR
Nature of the assay: cell ELISA on CHO-K1 cells with full-length human PD1.

The target of assay [8] is T5, human PD1-ECD (human, UniProt Q15116 25-170).
T5 construct: SPR analyte; also called hu PD1-ECD
Briefly: SPR Biacore T200, Ab captured on anti-human IgG, 25 C.

The target of assay [9] is T5, human PD1-ECD. Briefly: SPR; row head 'Affinity KD 37°C [nM] *)', first of two values, footnote not explained.
The target in assay [10] is T5, human PD1-ECD. Nature of the assay: SPR; row head 'Affinity KD 37°C [nM] *)', second of two values (equals the 25 C value of Table 9).
Assay [11] deals with T6, monomeric human Tim3-ECD (human, UniProt Q8TDQ0 22-202).
T6 construct: SPR analyte; also called huTim3; hu Tim3-ECD
Briefly: SPR Biacore T200, Ab captured on anti-human Fab IgG, hu Tim3-ECD in solution, 25 C.

Assay [12] concerns the target T7, Tim3-CLIP (on transiently transfected HEK293 cells) (human, CLIP-tag labelled with Clip-Red).
T7 construct: The plasmid encodes residues 1-202 including the signal peptide; also called CLIP-tagged TIM3
Nature of the assay: cell-based TR-FRET (Tag-lite) on HEK293 cells co-transfected with PD1-SNAP (Lumi4-Tb) and Tim3-CLIP (Clip-Red), 1 h at 4 C; signal needs both receptors bound at once by one antibody; mean +/- SD, n=3.

Assay [13] concerns the target T4, full-length human PD1 on cells (CHO-K1 …). Nature of the assay: cell-based or functional assay.
For assay [14], the target named is T3, biotinylated PD1-ECD-AviHis. Nature of the assay: ELISA on coated biotinylated PD1-ECD-AviHis. This is another data set of the same source.
The target in assay [15] is T8, biotinylated TIM3-ECD-AviHis (human, UniProt Q8TDQ0 22-202, biotinylated, site not stated).
T8 construct: also called huTIM3; Hu TIM3
Nature of the assay: ELISA on coated biotinylated TIM3-ECD-AviHis.

Assay [16] addresses T5, human PD1-ECD. Nature of the assay: SPR Biacore T200, Ab captured on anti-human Fc IgG, hu PD1-ECD in solution, 25 C.

Where two headings read alike, the source gives them in different places.

B1: Tim3_0021 (antibody, V domains shown)
VH: QVQLQQSGPQLVRPGASVQISCKASGYSFTSYLLHWLKQRPGQGLEWIGMIDPSDSETRLNQKFKDKATLTVDKSSSTAYMQLSSPTSEDSAVYYCARDGYYAWYYFDCWGQGTTLTVSS
VL: DIVLTQSPATLSVTPGDRVSLSCRASQSIGNNLHWYQQKSHESPRLLIKYASHSISGIPSKFSGTGSGTDFTLSFNSVETEDFGMYFCQQSNSWPLTFGAGTKLELK
For the molecule B1, in assay [1], the “IFN-gamma release in MLR at 1 µg/ml antibody, % of rec hu IL-2 (20 EU/ml) = 100%” value was determined as 101%; the “IFN-gamma release in MLR at 10 µg/ml antibody, % of rec hu IL-2 (20 EU/ml) = 100%” value stood at 108%; the “IFN-gamma release in MLR at 40 µg/ml antibody, % of rec hu IL-2 (20 EU/ml) = 100%” value turned out to be 112%. The midpoint of the response in assay [2], the EC50, lay at 0.073 µg/mL.

B2: PD1-0103-0312 (antibody, human IgG1, V domains shown)
VH: EVQLLESGGGLVQPGGSLRLSCAASGFSFSSYTMSWVRQAPGKGLEWVATISGGGRDIYYPDSVKGRFTISRDNSKNTLYLQMNSLRAEDTAVYYCVLLTGRVYFALDSWGQGTLVTVSS
VL: DIVMTQSPDSLAVSLGERATINCKASESVDTSDNSFIHWYQQKPGQSPKLLIYRSSTLESGVPDRFSGSGSGTDFTLTISSLQAEDVAVYYCQQNYDVPWTFGQGTKVEIK
notes: Humanized
Regarding B2, the 50% effective concentration (EC50) in assay [3] is 0.0083 µg/mL; in assay [4], 0.08 nM; in assay [5], 0.011 µg/mL; in assay [6], 0.1 nM; in assay [7], 0.0101 µg/mL. Moreover, the values for the Kd in [8], in assay [9] and in [10] were 1.8 nM, 1.5 nM and 1.8 nM, respectively. In [8], this molecule returned a koff of 0.000345 s⁻¹. Further, the kon in assay [8] is 195000 M⁻¹ s⁻¹.

B3: PD1-0103-0313 (antibody, human IgG1, V domains shown)
VH: B2 VH
VL: DVVMTQSPLSLPVTLGQPASISCRASESVDTSDNSFIHWYQQRPGQSPRLLIYRSSTLESGVPDRFSGSGSGTDFTLKISRVEAEDVGVYYCQQNYDVPWTFGQGTKVEIK
notes: Humanized
For B3, the EC50 in assay [3] was 0.011 µg/mL; in assay [4], 0.06 nM; in [5], 0.015 µg/mL; in [6], 0.07 nM; in assay [7] it was 0.0108 µg/mL. For the same molecule, the Kd in assay [8] turned out to be 2.3 nM; in assay [9], 1.9 nM; in assay [10], 2.3 nM. Further, the koff in assay [8] was 0.000367 s⁻¹. The on-rate (kon) in assay [8] amounted to 160000 M⁻¹ s⁻¹.

B4: PD1-0103-0315 (antibody, human IgG1, V domains shown)
VH: B2 VH
VL: EIVLTQSPATLSLSPGERATLSCRASESVDTSDNSFIHWYQQKPGQSPRLLIYRSSTLESGIPARFSGSGSGTDFTLTISSLEPEDFAVYYCQQNYDVPWTFGQGTKVEIK
notes: Humanized
With B4, the EC50 in assay [3] is 0.0079 µg/mL; in [4], 0.04 nM; in assay [5], 0.01 µg/mL; in assay [6] it was 0.06 nM; in [7], 0.0073 µg/mL. For the same molecule, the Kd was determined as 1.5 nM in [8], 1.7 nM in assay [9] and 1.5 nM in [10]. This molecule also returned a koff in [8] of 0.000291 s⁻¹. The kon in assay [8] is 189000 M⁻¹ s⁻¹.

B5: PD1-0103-0314 (antibody, human IgG1, V domains shown)
VH: B2 VH
VL: B4 VL
notes: Humanized
On to B5, for which the EC50 in assay [3] worked out at 0.0083 µg/mL; in [4], 0.05 nM; in assay [5], 0.011 µg/mL; in assay [6], 0.07 nM; in assay [7], 0.0077 µg/mL. In addition, the values for the Kd in assay [8], in assay [9] and in assay [10] were 1.5 nM, 1.6 nM and 1.5 nM, respectively. Besides, the koff in assay [8] worked out at 0.000279 s⁻¹. In [8], this molecule returned an on-rate (kon) of 187000 M⁻¹ s⁻¹.

B6: Tim3_0033 (antibody, V domains shown)
VH: QGQMHQSGAELVKPGSSVKLSCKTSGFTFSSSFISWLKQKPGQSLEWIAWIYAATGSTSYNQKFTNKAQLTVDTSSSAAYMQFSSLTTEDSAIYYCARHAGYPHYYAMDYWGQGTSVTVSS
VL: DIQMTQSPASLSASVGETVTITCRASENIFSNLAWYQQKQGKSPQLLVYSATNLGDGVPSRFSGSGSGTQFSLKINSLQPEDFGNYYCQHFYKIPFTFGTGTKLEIK
Consider B6, for which, in [1], the “IFN-gamma release in MLR at 1 µg/ml antibody, % of rec hu IL-2 (20 EU/ml) = 100%” value was found to be 0%; the “IFN-gamma release in MLR at 10 µg/ml antibody, % of rec hu IL-2 (20 EU/ml) = 100%” value came out at 30%; the “IFN-gamma release in MLR at 40 µg/ml antibody, % of rec hu IL-2 (20 EU/ml) = 100%” value is 35%. For the same molecule, in assay [2], the EC50 worked out at 3.71 µg/mL.

B7: 1+1 PD1TIM3_0476 (based on humanized PD1-0103_0312 / Tim3-0438) (bispecific antibody, human IgG1, kappa, L234A L235A)
heavy 1: not shown
heavy 2: EVQLVESGGGLVQPGGSLRLSCAASGFNIKTTYMHWVRQAPGKGLEWVGRIDPADDNTKYAPKFQGKATISADTSKNTAYLQMNSLRAEDTAVYYCVRDFGYVAWFAYWGQGTLVTVSSASTKGPSVFPLAPSSKSTSGGTAALGCLVEDYFPEPVTVSWNSGALTSGVHTFPAVLQSSGLYSLSSVVTVPSSSLGTQTYICNVNHKPSNTKVDEKVEPKSCDKTHTCPPCPAPEAAGGPSVFLFPPKPKDTLMISRTPEVTCVVVDVSHEDPEVKFNWYVDGVEVHNAKTKPREEQYNSTYRVVSVLTVLHQDWLNGKEYKCKVSNKALGAPIEKTISKAKGQPREPQVCTLPPSRDELTKNQVSLSCAVKGFYPSDIAVEWESNGQPENNYKTTPPVLDSDGSFFLVSKLTVDKSRWQQGNVFSCSVMHEALHNHYTQKSLSLSPGK
light 1: EVQLLESGGGLVQPGGSLRLSCAASGFSFSSYTMSWVRQAPGKGLEWVATISGGGRDIYYPDSVKGRFTISRDNSKNTLYLQMNSLRAEDTAVYYCVLLTGRVYFALDSWGQGTLVTVSSASVAAPSVFIFPPSDEQLKSGTASVVCLLNNFYPREAKVQWKVDNALQSGNSQESVTEQDSKDSTYSLSSTLTLSKADYEKHKVYACEVTHQGLSSPVTKSFNRGEC
light 2: DIVMTQSPLSLPVTPGEPASISCRASQSVDNYVAWYLQKPGQSPQLLIYYASNRYIGVPDRFSGSGSGTDFTLKISRVEAEDVGVYYCQQHYSSPYTFGQGTKVEIKRTVAAPSVFIFPPSDRKLKSGTASVVCLLNNFYPREAKVQWKVDNALQSGNSQESVTEQDSKDSTYSLSSTLTLSKADYEKHKVYACEVTHQGLSSPVTKSFNRGEC
notes: 1+1 CrossMAb Vh-VL: HC1/LC1 form the crossed PD1 arm, HC2/LC2 the TIM3 arm; knobs into holes
Take B7: binding in assay [11] was characterised by a dissociation constant (Kd) of 332 nM. The binding result in assay [12] was “binds”.

B8: Tim3_0026 (antibody, V domains shown)
VH: QIQLVQSGPELKKPGETVKISCKASGYTFTDYSMHWVKQAPGRGLKWMGYINTETYEPTFGADFKGRFAFSLDTSATTAYLQINSLKTEDTATFFCGGGGYPAYWGQGTVVIVSA
VL: DVLMTQTPLSLPVSLGDQASISCRSSRTILHSSGNTYLEWYLQKPGQSPKLLIYKVSNRFSGVPDRFSGSGSGTDFTLNISRVEAEDLGVYYCFQDSHVPFTFGTGTKLEIK
Regarding B8, in assay [1], the “IFN-gamma release in MLR at 1 µg/ml antibody, % of rec hu IL-2 (20 EU/ml) = 100%” value was determined as 18%; the “IFN-gamma release in MLR at 10 µg/ml antibody, % of rec hu IL-2 (20 EU/ml) = 100%” value worked out at 16%; the “IFN-gamma release in MLR at 40 µg/ml antibody, % of rec hu IL-2 (20 EU/ml) = 100%” value was 25%. Further, a half-maximal response in assay [2] (EC50) required 0.069 µg/mL.

B9: 2+2 PD1TIM3_0358 (chimeric PD1-0103 / Tim3-0028) (bispecific antibody, human IgG1, kappa, L234A L235A)
heavy: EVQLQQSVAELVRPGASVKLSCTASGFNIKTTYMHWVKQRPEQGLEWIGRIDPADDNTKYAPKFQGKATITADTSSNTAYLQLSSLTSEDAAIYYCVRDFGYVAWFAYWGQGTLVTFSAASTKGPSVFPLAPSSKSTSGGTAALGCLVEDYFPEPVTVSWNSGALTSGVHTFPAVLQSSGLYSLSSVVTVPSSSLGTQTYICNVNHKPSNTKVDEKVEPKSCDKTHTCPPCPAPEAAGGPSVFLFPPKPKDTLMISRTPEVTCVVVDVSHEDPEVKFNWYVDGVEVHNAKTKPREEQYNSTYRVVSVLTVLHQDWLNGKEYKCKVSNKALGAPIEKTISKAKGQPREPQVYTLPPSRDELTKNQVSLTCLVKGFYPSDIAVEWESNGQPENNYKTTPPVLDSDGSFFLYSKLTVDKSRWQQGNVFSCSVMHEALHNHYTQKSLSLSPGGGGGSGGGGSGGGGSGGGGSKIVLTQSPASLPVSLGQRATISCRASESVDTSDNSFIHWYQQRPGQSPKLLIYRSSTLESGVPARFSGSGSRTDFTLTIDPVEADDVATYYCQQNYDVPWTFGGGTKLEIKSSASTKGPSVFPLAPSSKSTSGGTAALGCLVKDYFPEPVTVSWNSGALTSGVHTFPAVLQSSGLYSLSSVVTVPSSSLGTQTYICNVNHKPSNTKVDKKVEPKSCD
light 1: NIVMTPTPKFLPVSSGDRVTMTCRASQSVDNYVAWYQQKPGQSPKLLIYYASNRYIGVPDRFTGSGSGTDFTFTISSVQVEDLAVYFCQQHYSSPYTFGSGTKLEIKRTVAAPSVFIFPPSDRKLKSGTASVVCLLNNFYPREAKVQWKVDNALQSGNSQESVTEQDSKDSTYSLSSTLTLSKADYEKHKVYACEVTHQG
light 2: EVILVESGGGLVKPGGSLKLSCAASGFSFSSYTMSWVRQTPEKRLDWVATISGGGRDIYYPDSVKGRFTISRDNAKNTLYLEMSSLMSEDTALYYCVLLTGRVYFALDSWGQGTSVTVSSASVAAPSVFIFPPSDEQLKSGTASVVCLLNNFYPREAKVQWKVDNALQSGNSQESVTEQDSKDSTYSLSSTLTLSKADYEKHKVYACEVTHQGLSSPVTKSFNRGEC
notes: also called PD1TIM3-0358 (2 + 2); Bispec AB 0358 (2+2)
Take B9: the “EC50 of IFN-gamma secretion in MLR, donors D1 + D3” value in [13] turned out to be 6.8 nM. Moreover, the “EC50 of IFN-gamma secretion in MLR, donors D2 + D4” value in assay [13] is 5.7 nM. For the same molecule, the EC50 in [14] was determined as 0.08 nM; in [15], 0.19 nM. Also, the figures for the dissociation constant (Kd) in [16] and in assay [11] were 0.3 nM and 240 nM, respectively.
